According to PMC4565669, “Insulin and mTOR Pathway Regulate HDAC3-Mediated Deacetylation and Activation of PGK1” (PLoS Biology, 2015):

What was measured:
PGK1 [1] = target: PGK1 (UniProt P00558); test: co-IP with HA beads, Flag blot; conditions: reference: wild type HDAC3, insulin-treated; sites S424
PGK1 [2] = target: PGK1 (UniProt P00558); test: co-IP of HA-HDAC3, PGK1 blot; conditions: reference: wild type HA-HDAC3; sites S424
GST-HDAC3 (recombinant) = target: T1, GST-HDAC3 (recombinant) (UniProt O15379-1 1-428); test: pull-down; in vitro pull-down with recombinant GST-HDAC3 (30 ug) and His-PGK1 (10 ug) purified from E. coli; details in S1 Text; conditions: both partners purified
T1 construct: source: E. coli, purified
T1 sequence (O15379 whole entry): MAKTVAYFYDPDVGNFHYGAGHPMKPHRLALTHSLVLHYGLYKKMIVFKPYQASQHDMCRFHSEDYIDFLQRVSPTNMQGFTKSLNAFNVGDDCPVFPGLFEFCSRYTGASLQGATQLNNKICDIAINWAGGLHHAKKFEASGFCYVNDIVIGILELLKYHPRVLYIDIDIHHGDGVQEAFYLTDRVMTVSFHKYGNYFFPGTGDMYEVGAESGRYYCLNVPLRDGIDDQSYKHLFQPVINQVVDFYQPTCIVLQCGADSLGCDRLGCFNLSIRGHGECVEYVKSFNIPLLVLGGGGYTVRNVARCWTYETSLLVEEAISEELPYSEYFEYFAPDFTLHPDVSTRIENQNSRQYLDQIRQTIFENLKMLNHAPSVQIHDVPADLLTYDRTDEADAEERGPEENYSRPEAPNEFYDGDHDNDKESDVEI

HDAC3 (from UniProt O15379) S424A, insulin-treated
binding against the reference (PGK1 [1]): weaker

HDAC3 (from UniProt O15379) S424A
binding against the reference (PGK1 [2]): weaker

B1: His-PGK1 (recombinant) (enzyme, human, UniProt P00558 1-417, looked up)
chain: MSLSNKLTLDKLDVKGKRVVMRVDFNVPMKNNQITNNQRIKAAVPSIKFCLDNGAKSVVLMSHLGRPDGVPMPDKYSLEPVAVELKSLLGKDVLFLKDCVGPEVEKACANPAAGSVILLENLRFHVEEEGKGKDASGNKVKAEPAKIEAFRASLSKLGDVYVNDAFGTAHRAHSSMVGVNLPQKAGGFLMKKELNYFAKALESPERPFLAILGGAKVADKIQLINNMLDKVNEMIIGGGMAFTFLKVLNNMEIGTSLFDEEGAKIVKDLMSKAEKNGVKITLPVDFVTADKFDENAKTGQATVASGIPAGWMGLDCGPESSKKYAEAVTRAKQIVWNGPVGVFEWEAFARGTKALMDEVVKATSRGCITIIGGGDTATCCAKWNTEDKVSHVSTGGGASLELLEGKVLPGVDALSNI
notes: Phosphoglycerate kinase 1 (PGK1), human, Gene ID 5230; unacetylated recombinant protein; also called His-tagged PGK1; source: E. coli, purified
binding result (GST-HDAC3 (recombinant)): binds
